Measurements as given in patent US20240101715A1 (KINDRED BIOSCIENCES, published 2024).

Key:
human TNFα = molecular target: T1, human TNFα (human, UniProt P01375 77-233, biotinylated (EZ-Link NHS-LC-biotin) in Example 2); test: BLI (ForteBio), biotinylated TNFα on streptavidin tips, antibody in solution, 1:1 model
T1 construct: Bought recombinant protein
Protocol: (§1) The binding analysis was performed as follows. Briefly, canine and human TNFα were biotinylated. The free unreacted biotin was removed from biotinylated TNFα by extensive dialysis. Biotinylated TNFα was captured on streptavidin sensor tips. The association of five different concentrations (150, 50, 17, 5.6, and 1.9 nM) of TNFα antibody and TNFα (human and canine, in different tests) was monitored for ninety seconds. Dissociation was monitored for 600 seconds. A buffer only blank curve was subtracted to correct for any drift. The data were fit to a 1:1 binding model using ForteBio™ data analysis software to determine the kon (association rate constant), koff (dissociation rate constant) and the KD (dissociation constant). […] The buffer for dilutions and all binding steps was: 200 mM phosphate, 150 mM NaCl, 0.02% Tween-20, 0.05% sodium azide, and 0.1 mg BSA, pH7.4.

canine TNFα [1] = molecular target: T2, canine TNFα (canine, UniProt P51742 77-233, biotinylated (EZ-Link NHS-LC-biotin) in Example 2); test: as above
T2 construct: Bought recombinant protein; also called cTNFα; canine TNF-alpha
T2 sequence (P51742 77-233 limits assumed): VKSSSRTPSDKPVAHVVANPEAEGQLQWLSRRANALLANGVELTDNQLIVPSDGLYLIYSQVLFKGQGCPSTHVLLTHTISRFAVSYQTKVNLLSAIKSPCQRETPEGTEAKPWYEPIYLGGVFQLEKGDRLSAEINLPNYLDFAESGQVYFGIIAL
Protocol: as §1

canine TNFα [2] = molecular target: T2, canine TNFα; test: BLI (biosensor Octet), format not stated

T1 sequence (P01375 77-233 limits assumed): as the sequence (P51742 77-233 limits assumed) above, with K2R, E21Q, S30N, T44R, I49V, D53E, F83I, T109A, L138R, N140D counted along it

Binder | Kd (human TNFα) [nM] | koff (human TNFα) [s⁻¹] | kon (human TNFα) [M⁻¹ s⁻¹] | Kd (canine TNFα [1]) [nM] | koff (canine TNFα [1]) [s⁻¹] | kon (canine TNFα [1]) [M⁻¹ s⁻¹] | Kd (canine TNFα [2]) [nM]
KBA v1 (caninized TNFα D2E7 antibody: KBA VL v1 and canine kappa light constant region; caninized variable heavy chain of D2E7 and canine IgG-B constant region) (antibody, V domains shown, Full light and heavy chains without leader; expressed in CHO cells, purified on Protein A; also called KIND-509) VH: EVQLVESGGDLVKPGGSLRLSCVASGFTFDDYAMHWVRQAPGKGLQWVSAITWNSGHIDYADAVKGRFTISRDNAKNTLYLQMNSLRAEDTAVYYCAKVSYLSTASSLDYWGQGTLVTVSS VL: DIVMTQTPLSLSASPGEPVSISCRASQGIRNYLAWYLQKPGQSPRLLIYAASTLQSGVPDRFSGSGSGTDFTLRIGRLEAEDAAIYYCQRYNRAPYTFGQGTKVEIKR | 0.0207 | 1.53e-05 | 741000 | 0.0988 | 8.28e-05 | 839000 | 
KBA v2 (caninized TNFα D2E7 antibody: KBA VL v2 and canine kappa light constant region; caninized variable heavy chain of D2E7 and canine IgG-B constant region) (antibody, V domains shown, Full light and heavy chains without leader; expressed in CHO cells, purified on Protein A) VH: EVQLVESGGDLVKPGGSLRLSCVASGFTFDDYAMHWVRQAPGKGLQWVSAITWNSGHIDYADAVKGRFTISRDNAKNTLYLQMNSLRAEDTAVYYCAKVSYLSTASSLDYWGQGTLVTVSS VL: DIVMTQTPPSLSASPGEPVSISCRASQGIRNYLAWFRQKPGQSPQLLIYAASTLQSGVSDRFSGSGSGTDFTLRISRLEADDAAVYYCQRYNRAPYTFGQGTKVEIKR | 0.269 | 0.00015 | 575000 | 0.303 | 0.000216 | 713000 | 
bispecific molecule comprising SEQ ID NO: 77 and SEQ ID NO: 81 (anti-NGF + Fc IgGB (FcRn long-acting Q to Y, C1q-, CD16-) + anti-TNF ScFv) (bispecific antibody, Expressed in mammalian cells, purified on Protein A; also called bispecific anti-canine TNF and anti-canine NGF molecule) light: EIVMTQSPGSLAGSAGESVSINCRASEDIYNALAWYQQKPGERPKLLIYNTDTLHTGVPARFSSSGSGTDFTLTINNLQAEDVGDYFCQHYFGYPRTFGAGTKVELKRNDAQPAVYLFQPSPDQLHTGSASVVCLLNSFYPKDINVKWKVDGVIQDTGIQESVTEQDKDSTYSLSSTLTMSSTEYLSHELYSCEITHKSLPSTLIKSFQRSECQRVD heavy: not shown |  |  |  |  |  |  | 0.838
